In patent publication CN116406375A (UNIV SHANGHAI TECHNOLOGY, dated 2023):

B1: S-D4 (antibody, V domains shown)
VH: QVQLQESGGGVVQPGRSLRLSCEVSGFTFSDYGMHWVRQAPGKGLEWVAVIWSEGSTEYYADSVKGRFTISRDNSKDTLYLQMNSLRAEDTAVYYCARPGYPTSTDRSPAAAGARQYYYYGMDVWGQGTTVTVSS
VL: NFMLTQPHSVSESPGKTVTISCTRSGGSGAANYVQWYQQRPGSSPTTLIYEDSRRPPGVPDRFSGSVDTSSNSASLTISGLQTEDEADYYCQSYDSSNHVVFGGGTKLTVLG
notes: also called S-D4二聚体; S-D4 IgG4
B2: S-E6 (antibody, V domains shown)
VH: QVTLRESGPGLVKPSETLSLTCAVSGGSLSSVNYYWSWIRQHPGKGLEWIGYIYYSGSTNYNPSLKSRVTMSLDTSKNQFSLKLSSVTAADTAVYYCATPGAIMGALHIWGQGTLVTVSS
VL: QAVLTQPSSASSTPGQRVIISCSGSSSNIGSNTVSWYQQVPGAAPKLLIYFDYRRPSGVPDRFSGTRSGTSASLGISGLQSEDEADYYCAAWDDSLSAWVFGRGTKLTVLG
notes: also called S-E6二聚体; 二聚体S-E6
B3: S-E6三聚体 (other)
heavy (part 1 of 2): B2 VH
heavy (part 2 of 2): GGGGSGGGGSGGGGSPGSGYIPEAPRDGQAYVRKDGEWVLLSTFLGHHHHHH
light: B2 VL
notes: also called 三聚体S-E6
B4: S-B8 (antibody, V domains shown)
VH: QVQLVQSGGGLIQPGGSLRLSCAASGFTVSLSHMNWVRQAPGKGLEWVSITYGDGNSDYADSVKGRFTISRDNSKNTLYLQMNSLRAEDTAVYYCAREYYYGMDVWGQGTTVTVSS
VL: not shown
notes: also called S-B8二聚体
B5: S-B8三聚体 (other)
heavy (part 1 of 2): B4 VH
heavy (part 2 of 2): B3 heavy (part 2 of 2)
light: not shown

Tests used:
[1] = target: 真SARS-CoV-2英国变异株(B.1.1.7)病毒的刺突 (SARS-CoV-2); experiment: cell-based or functional assay
野生型SARS-CoV-2假病毒的刺突Δ19 = 野生型SARS-CoV-2假病毒的刺突Δ19 (SARS-CoV-2, UniProt P0DTC2 14-1254); experiment: cell-based or functional assay
[2] = target: SARS-CoV-2刺突N501Y+D614G假病毒的刺突Δ19 (SARS-CoV-2, UniProt P0DTC2 14-1254); experiment: cell-based or functional assay
[3] = target: SARS-CoV-2 K417N+E484K+N501Y+D614G假病毒的刺突Δ19 (SARS-CoV-2, UniProt P0DTC2 14-1254); experiment: cell-based or functional assay
[4] = target: SARS-CoV-2 B.1.617.2假病毒的刺突Δ19 (SARS-CoV-2); experiment: cell-based or functional assay
SARS-CoV-2 S-RBD = target: T1, SARS-CoV-2 S-RBD (SARS-CoV-2, UniProt P0DTC2 319-541); experiment: BLI, biotinylated S-RBD on SA sensor, 1:1 Langmuir model
T1 construct: also called WT S-RBD; 野生型(WT)S-RBD

K417N+E484K+N501Y RBD = target: T2, K417N+E484K+N501Y RBD (SARS-CoV-2, UniProt P0DTC2 319-541); experiment: BLI, biotinylated B.1.351 S-RBD on SA sensor, 1:1 Langmuir model
T2 construct: also called B.1.351S-RBD; B.1.351的刺突RBD

Binder	NT50, 真病毒中和 (B.1.1.7) [1]	NT50, 假病毒中和 (野生型PSV) (野生型SARS-CoV-2假病毒的刺突Δ19)	NT50, 假病毒中和 (N501Y+D614G PSV) [2]	NT50(B.1.351) [3]	NT50(B.1.617.2) [4]	Kd (SARS-CoV-2 S-RBD)	Kd (K417N+E484K+N501Y RBD)
B1	1.88 nM	0.48 nM	0.042 nM	0.66 nM	0.24 nM		
B2	1.15 nM	0.025 nM	0.021 nM	0.32 nM	0.065 nM		
B3					0.007 nM	0.0101 nM	0.58 nM
B4			0.53 nM	1.2 nM	0.37 nM		
B5				0.35 nM	0.15 nM		
